Target: rabbit reticulocyte lysate 60S ribosomal subunit, purified (rabbit) (UniProt G1SV32)
Test: co-sedimentation

recombinant full-length Ebp1 with a N-terminal histidine tag (Ebp1-His) (from UniProt P50580 1-394) (natural protein)
Ebp1 concentration at saturated binding (100 nM 60S): 200 nM
Kd: 0.124 µM
